{
  "source": "patent US20210388087A1",
  "about": "(Chugai, published 2021)",
  "binders": {"B1": {"name": "H183/L072 VH Q50D (antibody, name in Kabat numbering, V domains shown)", "VH": "QVQLVESGGGLVQPGRSLRLSCAASGFTFSNAWMHWVRQAPGKGLEWVADIKDKGNAYAAYYAPSVKGRFTISRDDSKNSIYLQMNSLKTEDTAVYYCHYVHYASASTVLPAFGVDAWGQGTTVTVSS", "VL": "DIVMTQSPLSLPVTPGEPASISCQASQELVHMNRNTYLHWYQQKPGQAPRLLIYKVSNRFPGVPDRFSGSGSGTDFTLKISRVEAEDVGVYYCAQGTSVPFTFGQGTKLEIK"}, "B2": {"name": "H183/L072 VH Q50E (antibody, name in Kabat numbering, V domains shown)", "VH": "B1 VH with D50E", "VL": "B1 VL"}, "B3": {"name": "H183/L072 VH Q50F (antibody, name in Kabat numbering, V domains shown)", "VH": "B1 VH with D50F", "VL": "B1 VL"}, "B4": {"name": "H183/L072 VH Q50H (antibody, name in Kabat numbering, V domains shown)", "VH": "B1 VH with D50H", "VL": "B1 VL"}, "B5": {"name": "H183/L072 VH Q50K (antibody, name in Kabat numbering, V domains shown)", "VH": "B1 VH with D50K", "VL": "B1 VL"}, "B6": {"name": "H183/L072 VH Q50L (antibody, name in Kabat numbering, V domains shown)", "VH": "B1 VH with D50L", "VL": "B1 VL"}, "B7": {"name": "H183/L072 VH Q50M (antibody, name in Kabat numbering, V domains shown)", "VH": "B1 VH with D50M", "VL": "B1 VL"}, "B8": {"name": "H183/L072 VH Q50N (antibody, name in Kabat numbering, V domains shown)", "VH": "B1 VH with D50N", "VL": "B1 VL"}, "B9": {"name": "H183/L072 VH Q50S (antibody, name in Kabat numbering, V domains shown)", "VH": "B1 VH with D50S", "VL": "B1 VL"}, "B10": {"name": "H183/L072 VH Q50T (antibody, name in Kabat numbering, V domains shown)", "VH": "B1 VH with D50T", "VL": "B1 VL"}, "B11": {"name": "H183/L072 VH Q50V (antibody, name in Kabat numbering, V domains shown)", "VH": "B1 VH with D50V", "VL": "B1 VL"}, "B12": {"name": "H183/L072 VH Q50W (antibody, name in Kabat numbering, V domains shown)", "VH": "B1 VH with D50W", "VL": "B1 VL"}, "B13": {"name": "H183/L072 VH Q50Y (antibody, name in Kabat numbering, V domains shown)", "VH": "B1 VH with D50Y", "VL": "B1 VL"}, "B14": {"name": "H183/L072 VH S30A (antibody, name in Kabat numbering, V domains shown)", "VH": "B1 VH with S30A, D50Q", "VL": "B1 VL"}, "B15": {"name": "H183/L072 VH S30D (antibody, name in Kabat numbering, V domains shown)", "VH": "B1 VH with S30D, D50Q", "VL": "B1 VL"}, "B16": {"name": "H183/L072 VH S30E (antibody, name in Kabat numbering, V domains shown)", "VH": "B1 VH with S30E, D50Q", "VL": "B1 VL"}, "B17": {"name": "H183/L072 VH S30F (antibody, name in Kabat numbering, V domains shown)", "VH": "B1 VH with S30F, D50Q", "VL": "B1 VL"}, "B18": {"name": "H183/L072 VH S30G (antibody, name in Kabat numbering, V domains shown)", "VH": "B1 VH with S30G, D50Q", "VL": "B1 VL"}, "B19": {"name": "H183/L072 VH S30H (antibody, name in Kabat numbering, V domains shown)", "VH": "B1 VH with S30H, D50Q", "VL": "B1 VL"}, "B20": {"name": "H183/L072 VH S30I (antibody, name in Kabat numbering, V domains shown)", "VH": "B1 VH with S30I, D50Q", "VL": "B1 VL"}, "B21": {"name": "H183/L072 VH S30K (antibody, name in Kabat numbering, V domains shown)", "VH": "B1 VH with S30K, D50Q", "VL": "B1 VL"}, "B22": {"name": "H183/L072 VH S30L (antibody, name in Kabat numbering, V domains shown)", "VH": "B1 VH with S30L, D50Q", "VL": "B1 VL"}, "B23": {"name": "H183/L072 VH S30M (antibody, name in Kabat numbering, V domains shown)", "VH": "B1 VH with S30M, D50Q", "VL": "B1 VL"}, "B24": {"name": "H183/L072 VH S30N (antibody, name in Kabat numbering, V domains shown)", "VH": "B1 VH with S30N, D50Q", "VL": "B1 VL"}, "B25": {"name": "H183/L072 VH S30P (antibody, name in Kabat numbering, V domains shown)", "VH": "B1 VH with S30P, D50Q", "VL": "B1 VL"}, "B26": {"name": "H183/L072 VH S30Q (antibody, name in Kabat numbering, V domains shown)", "VH": "B1 VH with S30Q, D50Q", "VL": "B1 VL"}, "B27": {"name": "H183/L072 VH S30R (antibody, name in Kabat numbering, V domains shown)", "VH": "B1 VH with S30R, D50Q", "VL": "B1 VL"}, "B28": {"name": "H183/L072 VH S30T (antibody, name in Kabat numbering, V domains shown)", "VH": "B1 VH with S30T, D50Q", "VL": "B1 VL"}, "B29": {"name": "H183/L072 VH S30V (antibody, name in Kabat numbering, V domains shown)", "VH": "B1 VH with S30V, D50Q", "VL": "B1 VL"}, "B30": {"name": "H183/L072 VH S30W (antibody, name in Kabat numbering, V domains shown)", "VH": "B1 VH with S30W, D50Q", "VL": "B1 VL"}, "B31": {"name": "H183/L072 VH S30Y (antibody, name in Kabat numbering, V domains shown)", "VH": "B1 VH with S30Y, D50Q", "VL": "B1 VL"}, "B32": {"name": "H183/L072 VH S62A (antibody, name in Kabat numbering, V domains shown)", "VH": "B1 VH with D50Q, S65A", "VL": "B1 VL"}, "B33": {"name": "H183/L072 VH S62I (antibody, name in Kabat numbering, V domains shown)", "VH": "B1 VH with D50Q, S65I", "VL": "B1 VL"}},
  "note": "Where a chain is given by its changes, count along the chain named. Names may count otherwise.",
  "data": [
    {"biological_target": "T1, Human CD137 ECD (human)", "T1 construct": "also called 4-1BB", "T1 sequence (chain, as listed by the source limits assumed)": "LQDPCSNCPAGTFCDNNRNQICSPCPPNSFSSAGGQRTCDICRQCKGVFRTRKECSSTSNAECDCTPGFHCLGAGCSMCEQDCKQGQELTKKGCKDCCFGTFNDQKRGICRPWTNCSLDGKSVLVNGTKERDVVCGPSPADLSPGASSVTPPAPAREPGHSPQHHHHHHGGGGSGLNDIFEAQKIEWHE", "experiment": "single mutant vs template dBBDu183H", "units": {"fold change of affinity": "fold"}, "values": [
      {"binder": "B1", "fold change of affinity": 0.3},
      {"binder": "B2", "fold change of affinity": 0.5},
      {"binder": "B3", "fold change of affinity": 2.6},
      {"binder": "B4", "fold change of affinity": 0.6},
      {"binder": "B5", "fold change of affinity": 0.8},
      {"binder": "B6", "fold change of affinity": 0.8},
      {"binder": "B7", "fold change of affinity": 1.5},
      {"binder": "B8", "fold change of affinity": 0.5},
      {"binder": "B9", "fold change of affinity": 0.8},
      {"binder": "B10", "fold change of affinity": 2},
      {"binder": "B11", "fold change of affinity": 0.3},
      {"binder": "B12", "fold change of affinity": 1.7},
      {"binder": "B13", "fold change of affinity": 3.1},
      {"binder": "B14", "fold change of affinity": 1.2},
      {"binder": "B15", "fold change of affinity": 0.4},
      {"binder": "B16", "fold change of affinity": 0.6},
      {"binder": "B17", "fold change of affinity": 0.7},
      {"binder": "B18", "fold change of affinity": 0.9},
      {"binder": "B19", "fold change of affinity": 0.6},
      {"binder": "B20", "fold change of affinity": 0.6},
      {"binder": "B21", "fold change of affinity": 0.7},
      {"binder": "B22", "fold change of affinity": 0.5},
      {"binder": "B23", "fold change of affinity": 0.8},
      {"binder": "B24", "fold change of affinity": 0.6},
      {"binder": "B25", "fold change of affinity": 0.9},
      {"binder": "B26", "fold change of affinity": 0.7},
      {"binder": "B27", "fold change of affinity": 0.7},
      {"binder": "B28", "fold change of affinity": 0.9},
      {"binder": "B29", "fold change of affinity": 0.8},
      {"binder": "B30", "fold change of affinity": 0.5},
      {"binder": "B31", "fold change of affinity": 0.5},
      {"binder": "B32", "fold change of affinity": 0.7},
      {"binder": "B33", "fold change of affinity": 0.7}
    ]}
  ]
}
